Article PMC7319273 (2020)

B1: 2M-10B11 (human monoclonal antibody) (antibody, V domains shown)
VH: EVQLVESGGGLVQPGGSLRLSCAASGFTVSSNYMSWVRQAPGKGLEWVSVIYSGGSTYYADSVKGRFTISRDNSKNTLYLQMNSLRAEDTAVYYCARATWLRGVMDVWGQGTTVTVSS
VL: QSALTQPHSVSESPGKTVTISCTGSSGSIASNYVQWYQQRPGSAPTTVIYEDNQRPSGVPDRFSGSIDSSSNSASLTISGLKTEDEADYYCQSYDSSNHWVFGGGTKLTVL
B2: 4A8 (human monoclonal antibody) (antibody, V domains shown)
VH: EVQLVESGAEVKKPGASVKVSCKVSGYTLTELSMHWVRQAPGKGLEWMGGFDPEDGETMYAQKFQGRVTMTEDTSTDTAYMELSSLRSEDTAVYYCATSTAVAGTPDLFDYYYGMDVWGQGTTVTVSS
VL: EIVMTQSPLSSPVTLGQPASISCRSSQSLVHSDGNTYLSWLQQRPGQPPRLLIYKISNRFSGVPDRFSGSGAGTDFTLKISRVEAEDVGVYYCTQATQFPYTFGQGTKVDIK

Target: SARS-CoV-2 Spike protein extracellular domain (S-ECD), as used in ELISA and BLI (SARS-CoV-2, UniProt P0DTC2 14-1208)
Assay: BLI

| Binder | Kd |
| --- | --- |
| B1 | 342 pM |
| B2 | 996 pM |
